Laboratory results taken from publication doi:10.1101/2024.09.22.614354 (bioRxiv, 2024).
Where a chain is given by its changes, count along the chain named.

Legend:
Assay in all cases: fluorescence polarisation
[1] = target: T1, wild type Rb pocket domain (Rb^P) (human, UniProt P06400 380-788)
T1 sequence: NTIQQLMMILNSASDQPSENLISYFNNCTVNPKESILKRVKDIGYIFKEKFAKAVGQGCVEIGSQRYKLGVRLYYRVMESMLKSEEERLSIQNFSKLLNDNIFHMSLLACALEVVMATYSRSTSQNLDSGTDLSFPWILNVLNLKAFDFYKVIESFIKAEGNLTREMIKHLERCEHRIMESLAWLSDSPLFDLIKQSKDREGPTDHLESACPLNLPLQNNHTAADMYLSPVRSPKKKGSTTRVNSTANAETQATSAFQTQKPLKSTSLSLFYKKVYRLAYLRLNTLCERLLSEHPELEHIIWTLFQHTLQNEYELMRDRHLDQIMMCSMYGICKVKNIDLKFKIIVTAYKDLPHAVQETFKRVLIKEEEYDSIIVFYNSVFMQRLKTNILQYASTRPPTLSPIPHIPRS

Rb^P I703V = target: T2, Rb^P I703V (human, UniProt P06400 380-788, I703V)
T2 sequence: T1 sequence with I324V

Rb^P E492Q = target: T3, Rb^P E492Q (human, UniProt P06400 380-788, E492Q)
T3 sequence: T1 sequence with E113Q

Rb^P S534R = target: T4, Rb^P S534R (human, UniProt P06400 380-788, S534R)
T4 sequence: T1 sequence with S155R

Rb^P R763T = target: T5, Rb^P R763T (human, UniProt P06400 380-788, R763T)
T5 sequence: T1 sequence with R384T

B1: TMR-E7^LxCxE (LxCxE peptide of the E7 oncoprotein from HPV, TMR-labeled) (peptide)
peptide: DLYCYEQLN
modifications: not fully specified; TMR fluorescent label (TMR-E7^LxCxE)
Kd [1]: 12 nM
binding result (Rb^P I703V): binds
binding result (Rb^P E492Q): binds
binding result (Rb^P S534R): binds
binding result (Rb^P R763T): binds
